The source of these data is patent KR20150000795A.

For the experiment, the target named is c-Met on MKN45 gastric cancer cells / Caki-1 kidney cancer cells (human) (UniProt P08581). Nature of the experiment: cell-based or functional assay.
Chain of UniProt P08581 (P08581 25-1390): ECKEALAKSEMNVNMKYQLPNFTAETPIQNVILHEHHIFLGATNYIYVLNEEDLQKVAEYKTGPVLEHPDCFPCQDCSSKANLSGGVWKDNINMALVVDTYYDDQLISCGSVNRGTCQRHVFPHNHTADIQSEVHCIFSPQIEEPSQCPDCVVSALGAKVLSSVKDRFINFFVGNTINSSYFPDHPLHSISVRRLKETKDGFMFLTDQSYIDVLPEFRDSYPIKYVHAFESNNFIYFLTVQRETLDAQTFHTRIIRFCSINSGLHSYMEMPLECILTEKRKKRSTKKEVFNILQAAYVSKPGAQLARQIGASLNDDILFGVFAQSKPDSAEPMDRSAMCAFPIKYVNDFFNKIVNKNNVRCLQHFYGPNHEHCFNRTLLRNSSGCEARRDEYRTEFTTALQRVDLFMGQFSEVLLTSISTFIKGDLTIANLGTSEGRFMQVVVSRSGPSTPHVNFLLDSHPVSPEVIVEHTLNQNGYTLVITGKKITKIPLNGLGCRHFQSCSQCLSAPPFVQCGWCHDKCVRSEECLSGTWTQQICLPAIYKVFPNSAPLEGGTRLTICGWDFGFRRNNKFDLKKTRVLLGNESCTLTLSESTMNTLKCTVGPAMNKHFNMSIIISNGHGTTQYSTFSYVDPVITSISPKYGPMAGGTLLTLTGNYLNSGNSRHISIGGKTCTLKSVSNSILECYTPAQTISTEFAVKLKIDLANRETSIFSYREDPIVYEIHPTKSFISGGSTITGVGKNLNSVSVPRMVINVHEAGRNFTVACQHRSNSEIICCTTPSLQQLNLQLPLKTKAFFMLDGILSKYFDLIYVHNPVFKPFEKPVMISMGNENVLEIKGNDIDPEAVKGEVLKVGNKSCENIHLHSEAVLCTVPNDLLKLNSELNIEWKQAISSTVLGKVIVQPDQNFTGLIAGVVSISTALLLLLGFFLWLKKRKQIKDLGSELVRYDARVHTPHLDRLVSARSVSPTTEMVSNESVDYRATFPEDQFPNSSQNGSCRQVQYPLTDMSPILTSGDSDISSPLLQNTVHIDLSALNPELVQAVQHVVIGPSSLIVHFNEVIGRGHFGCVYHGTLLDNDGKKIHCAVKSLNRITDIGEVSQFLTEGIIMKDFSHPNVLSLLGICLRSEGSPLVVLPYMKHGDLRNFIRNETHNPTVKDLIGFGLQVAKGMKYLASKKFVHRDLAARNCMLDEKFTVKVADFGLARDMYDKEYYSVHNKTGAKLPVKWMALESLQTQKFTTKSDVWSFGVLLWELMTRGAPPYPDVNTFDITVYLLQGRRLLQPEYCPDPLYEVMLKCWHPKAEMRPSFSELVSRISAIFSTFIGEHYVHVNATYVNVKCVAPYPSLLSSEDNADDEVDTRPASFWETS

For 5D5 (antibody), the Akt phosphorylation (Ser473), phospho-AKT1 sandwich ELISA, Caki-1 cells (reference set to 100%) was found to be 100%.
